# T1: MMRN2^EMI-CC (EMI and coiled-coil domains of human MMRN2, His tag) (human, UniProt Q9H8L6 23-820)
# T1 construct: domain: EMI and coiled-coil; HEK293T lysate, blotted under reducing conditions; not shown: C-terminal BirA and His tags of vector pHL-Avitag3
# T1 sequence (looked up): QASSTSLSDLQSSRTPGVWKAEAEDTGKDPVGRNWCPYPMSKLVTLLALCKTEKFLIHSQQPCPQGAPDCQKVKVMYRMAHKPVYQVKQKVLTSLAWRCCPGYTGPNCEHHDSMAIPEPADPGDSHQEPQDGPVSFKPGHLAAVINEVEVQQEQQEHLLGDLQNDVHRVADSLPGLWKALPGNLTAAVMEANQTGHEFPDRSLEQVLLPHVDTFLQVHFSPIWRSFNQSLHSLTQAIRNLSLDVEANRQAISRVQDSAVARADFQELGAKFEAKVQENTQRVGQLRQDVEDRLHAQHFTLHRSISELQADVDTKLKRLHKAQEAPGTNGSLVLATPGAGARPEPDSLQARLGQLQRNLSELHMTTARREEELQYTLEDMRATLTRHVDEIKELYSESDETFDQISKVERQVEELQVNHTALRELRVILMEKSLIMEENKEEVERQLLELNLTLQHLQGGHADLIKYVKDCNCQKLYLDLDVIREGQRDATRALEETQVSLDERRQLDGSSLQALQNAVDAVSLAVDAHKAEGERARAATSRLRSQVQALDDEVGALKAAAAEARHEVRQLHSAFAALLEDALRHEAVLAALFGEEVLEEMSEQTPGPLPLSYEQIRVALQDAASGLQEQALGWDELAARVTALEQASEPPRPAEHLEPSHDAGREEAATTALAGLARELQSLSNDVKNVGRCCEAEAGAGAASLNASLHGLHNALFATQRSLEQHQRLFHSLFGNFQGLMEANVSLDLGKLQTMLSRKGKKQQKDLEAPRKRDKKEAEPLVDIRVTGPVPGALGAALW
# T2: MMRN2^CC-C1q (coiled-coil and C1q domains of human MMRN2, His tag) (human, UniProt Q9H8L6 133-949)
# T2 construct: domain: coiled-coil and C1q; HEK293T lysate, blotted under reducing conditions; not shown: C-terminal BirA and His tags of vector pHL-Avitag3
# T2 sequence (looked up): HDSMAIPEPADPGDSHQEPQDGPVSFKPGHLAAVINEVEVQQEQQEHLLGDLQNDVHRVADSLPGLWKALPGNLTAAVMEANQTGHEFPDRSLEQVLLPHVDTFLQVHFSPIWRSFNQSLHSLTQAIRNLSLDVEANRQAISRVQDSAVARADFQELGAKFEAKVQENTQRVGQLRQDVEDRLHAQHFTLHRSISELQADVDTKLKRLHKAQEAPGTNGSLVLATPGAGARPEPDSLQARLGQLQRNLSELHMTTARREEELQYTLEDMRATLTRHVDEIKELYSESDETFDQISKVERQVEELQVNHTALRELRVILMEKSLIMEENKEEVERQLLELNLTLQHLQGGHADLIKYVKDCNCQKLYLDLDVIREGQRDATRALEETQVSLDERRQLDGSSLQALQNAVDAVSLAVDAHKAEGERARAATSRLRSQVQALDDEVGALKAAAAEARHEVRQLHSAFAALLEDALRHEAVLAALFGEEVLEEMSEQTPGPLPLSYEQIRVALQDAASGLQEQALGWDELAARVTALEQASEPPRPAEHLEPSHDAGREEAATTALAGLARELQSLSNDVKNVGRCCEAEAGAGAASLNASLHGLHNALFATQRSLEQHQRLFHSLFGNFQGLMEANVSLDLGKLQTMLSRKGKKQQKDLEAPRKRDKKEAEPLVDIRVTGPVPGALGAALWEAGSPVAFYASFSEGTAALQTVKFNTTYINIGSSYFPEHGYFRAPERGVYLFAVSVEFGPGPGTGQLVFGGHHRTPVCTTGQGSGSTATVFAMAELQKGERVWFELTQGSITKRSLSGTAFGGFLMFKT
# B1: CLEC14A-ECD-Fc (human CLEC14A extracellular domain fused to an Fc tag) (Fc fusion)
# chain: EHPTADRAGCSASGACYSLHHATMKRQAAEEACILRGGALSTVRAGAELRAVLALLRAGPGPGGGSKDLLFWVALERRRSHCTLENEPLRGFSWLSSDPGGLESDTLQWVEEPQRSCTARRCAVLQATGGVEPAGWKEMRCHLRANGYLCKYQFEVLCPAPRPGAASNLSYRAPFQLHSAALDFSPPGTEVSALCRGQLPISVTCIADEIGARWDKLSGDVLCPCPGRYLRAGKCAELPNCLDDLGGFACECATGFELGKDGRSCVTSGEGQPTLGGTGVPTRRPPATATSPVPQRTWPIRVDEKLGETPLVPEQDNSVTSIPEIPRWGSQSTMSTLQMSLQAESKATITPSGSVISKFNSTTSSATPQAFDSSS
# notes: Expressed in HEK293T cells; also called hCLEC14A-ECD-Fc; C14A-Fc; not shown: human IgG Fc tag
# Columns and labels:
# [1] = biological target: T1, MMRN2^EMI-CC (EMI and coiled-coil …); assay: far western blot, reduced; HEK293T lysates of His-tagged MMRN2 constructs probed with CLEC14A-ECD-Fc
# Source text: (§1) FIG. 2. […] (A) Diagrams of MMRN2 truncation mutants, showing the elastin microfibril interface (EMI) domain, coiled-coil (CC) domain and complement related C1q domain. The minimal CLEC14A binding fragment is highlighted in black. (B,C) HEK293T were transfected with truncation mutants. Lysates were far western blotted under reduced conditions with CLEC14A extracellular domain fused to an Fc tag (CLEC14A-ECD-Fc) and western blotted by use of His tag antibodies. (B) The smallest binding fragment was identified as MMRN2⁴⁸⁷⁻⁸²⁰, MMRN2^FL fails to bind CLEC14A-ECD-Fc. (C) The smallest MMRN2 fragment binding CLEC14A is MMRN2⁵³⁰⁻⁶²⁴. (D) MMRN2⁴⁹⁵⁻⁶⁷⁴ and MMRN2⁴⁹⁵⁻⁶⁰³ bind to streptavidin under reducing conditions after biotinylation. (E) Flow cytometry histograms of HEK293T transfected with GFP tagged CTLD group 14 family members and stained with biotinylated MMRN2⁴⁹⁵⁻⁶⁷⁴ (grey line), confirming binding to CLEC14A and CD93 but not thrombomodulin. Streptavidin-PE was used as a control for background binding (grey shaded).
# (§2) Whole cell protein lysates were made by incubating with lysis buffer (1% (v/v) NP40, 10 mM Tris pH7.5, 150 mM NaCl and 1 mM EDTA) and pelleting insoluble material. […] The epitope tag of each probed protein was detected with secondary antibody incubation (anti-His or anti-Fc HRP conjugate) and then tertiary anti-mouse HRP for the case of anti-His.
# [2] = biological target: T2, MMRN2^CC-C1q (coiled-coil and C1q …); assay: as above
# Source text: as §1, §2
binder,measurement,setting,value
B1,binding result,[1],binds
same,binding result,[2],binds
